Experimental findings from patent US20250136720A1 (Boehringer Ingelheim, published 2025) are described below.

The labels stand for the following.
B1: FAP.65.F1 (Fc fusion)
VH: DVQLVESGGGLVHPGGSLRLSCAASTFTFANYIMSWVRQAPGKGLEWVSGITGSSTNTYYTDSVKGRFTISRDNSKNTLYLEMNSLRAEDTAVYYCAKHQLYPYYAMDVWGQGTTVTVSS
VL: EIVLTQSPGSLSLSPGERATLSCRASQPIDSYLAWYQQKPGQAPRLLIYGASTRATDIPDRFSGSGSGTEFTLTISSLQSEDFAVYYCQQYYDWPPVTFGGGTKVEIK
notes: Tested as scFv-Fc; orientation, linker and Fc of this construct not specified
B2: FAP.63.G3 (Fc fusion)
VH: DVQLVESGGGVVRPGESLTLSCAASGFTFSNYDMGWVRQAPGEGLEWVSGIRGRGGSTYYADSVKGRFTISRDSSKNTLYLQMNSLRAEDTAVYYCAKENNRHSFFEYWGLGTLVTVSS
VL: EIVLTQSPGTLSLSPGERATLSCRASQSVGHYLAWYQQKPGQAPRLLIYDASNRAIDIPDRFSGSGSGTEFTLTISRLEPEDFAVYYCQQYYNNWPPLTFGGGTKVEIK
notes: Tested as scFv-Fc; orientation, linker and Fc not specified; also called FAP.63.C3; FAP 63.C3
B3: CD137 #B4 (antibody, human IgG1, V domains shown)
VH: DVQLQESGPGLVKPSQSLSLTCTVTGYSITSDYAWNWIRQFPGNRLEWMGYISYSGSTSYNPSLKSRISITRDTSKNQFFLQLNSVTTEDTATYFCARWGYVLDYWGQGTSVTVSS
VL: DIVMTQSHKFMSTSEGDRVSITCKASQDVSTAVAWYQQKPGQSPKLLIYWASTRHTGVPDRFRGSGSGTDYTLTISSVQAEDLALYFCQQHYFTPYTFGGGTKLEIK
notes: human IgG1 KO (L234A/L235A)/kappa chimeric IgG
B4: CD137 #A42 (antibody, V domains shown)
VH: QVQLQQSGPGLVKPSQTLSLTCAISGDSVSSNSAAWNWIRQSPSRGLEWLGRTYYRSNWYNDYAVSVESRITIKPDTSKNQFSLQLNSVTPEDTAVYYCARMDSGTYLDAFDIWGQGTMVTVSS
VL: EIVMTQSPATLSVSPGERATLSCRASQSVGRNLAWYQQKPGQTPRLLIYGASTRATGIPAIFSGSGSGTEFTLTISSLQSEDFAVYYCQQYNYWPPFTFAQGTKLEIK
notes: as for B3
B5: CD137 #B7 (antibody, human IgG1, V domains shown)
VH: EVQLQESGPSLVKPSQTLSLTCSVTGDSITSGYWNWIRKFPGNKLEFMGYITYSGSTYYNPSLKSRISITRDTSRNQFYLQVNSVTTEDTATYFCTRYYYYGSTYYAMDYWGQGTSVTVSS
VL: NIVLTQSPASLAVSLGQRATISCRVSESVDSYGNSFMHWFQQKPGQSPKLLIYLASNLESGVPARFSGSGSRTDFTLTIDPVEADDAATYYCQQNIEDPPTFGGGTKLEIK
notes: as for B3
B6: CD137 #A39 (antibody, human IgG1, V domains shown)
VH: QVQLQQSGAELMKPGSSVKLSCKAPGYKFTDYWIEWVKQRPGHGLDWIGNILPGTINTNSNENFKGKATFTADTSSNTAYMQLSSLTSEDSAVYYCARRSLEYYFDYWGQGTTLTVSS
VL: DIVVTQSPASLAVSLGQRATISCRASQSVSTSRYSYMHWYQQKPGQPPRLLINYASNLESGVPARFSGSGSGTDFTLNIHPVEEEDTATYYCQHTWEIPWTFGGGTKLEIK
notes: as for B3
B7: CD137 #A49 (antibody, human IgG1, V domains shown)
VH: QVQLQESGPGLVKPSETLSLTCTVSGGSISSYYWSWIRQPPGKGLEWIGYIYYSGSTNYNPSLKSRVTISVDTSKNQFSLKLSSVTAADTAVYYCARDQSGGGSFQHWGQGTLVTVSS
VL: EIVMTQSPLSLPVTPGEPASISCRSSQSLLYSNGYNHLDWYLQKPGQSPQLLIYLGSNRASGVPDRFSGSGSGTDFTLKISRVEAEDVGVYYCMQALQTPPTFGQGTKLEIK
notes: human IgG1 KO (L234A/L235A)/kappa IgG; also called CD137 #7; A49 Parent
B8: CD137 #B20 (antibody, human IgG1, V domains shown)
VH: EVKLVESEGGLVQPGSSMKLSCTASGFTFSDFYMAWVRQVPEKGLEWVANINYDGSSTYYLDSLKSRFIISRDNARNILYLQMSSLKSEDTATYYCAREGDEGWYFDVWGAGTTVTVSS
VL: DIVMTQSHKFMSTSVGDRVSITCKASQDVSTAVAWYQQKPGQSPKLLIYSASYRYTGVPDRFTGSGSGTDFTFTISSVQAEDLAVYYCQQHYSNPWTFGGGTKLEIK
notes: as for B3
B9: CD137 #B21 (antibody, human IgG1, V domains shown)
VH: EVKLVESEGGLVQPGSSMKLSCTASGFTFSDFYMAWVRQVPEKGLEWVANINYDGSSTYYLDSLKSRFIISRDNARNILYLQMSSLKSEDTATYYCAREGDEGWYFDVWGAGTTVTVSS
VL: DIVMTQSHKFMSTSVGDRVSITCKASQDVSTAVAWYQQKPGQSPKLLIYSASYRYTGVPDRFTGSGSGTDFTFTISSVQAEDLAVYYCQQHYSNPWTFGGGTKLEIK
notes: human IgG1 KO (L234A/L235A)/kappa chimeric IgG; also called CD137 #1; B21 parent
B10: CD137 #B27 (antibody, human IgG1, V domains shown)
VH: QVQLQQSGAELVRPGASVKISCKAFGYTFTNHHINWVKQRPGQGLDWIGYINPYNDYSGYNQKFKGRATLTVDKSSNTAYMELSSLTSEDSAVYYCATPGTWEGYYFDYWGQGTTLTVSS
VL: DVVMTQTPLSLPVSLGDQASISCRSSQSLVHSNGNTYLEWYLQKPGQSPKVLIYMVSNRFSGVPDRFSGSGSGTDFTLKISRVEAEDLGVYYCFQGSHIPLTFGAGTKLELK
notes: as for B3
B11: CD137 #A26 (antibody, human IgG1, V domains shown)
VH: EVQLQESGPSLVKPSQTLSLTCSVTGDSITSGYWNWNRKFPGNKFEYMGYISYSDSAYYNPSLKSRISITRDTSKNQYYLQLNSVTTEDTATYYCTRWGIPFAFWGQGTLVTVSA
VL: DIKMTQSPSSMYASLGERVTITCKASQDIDSYLYWFQQKPGKSPETLIYHANRLVDGVPSRFSGSGSGQDYSLTISSLEYEDMGIYYCLQYDEFPYTFGGGTKLEIK
notes: as for B3
B12: CD137 #B1 (antibody, human IgG1, V domains shown)
VH: QVQLQQPGAELVKPGASVKLSCKASGYTFTNFWINWVKQRPGQALEWIGNIYPGNDNTNYNGNFKTKATLTVDRSSSTAYMHLSSLTSKDSAVYYCARGQLGLDYWGQGTTLTVSS
VL: DILLTQSPAILSVSPGERVSFSCRASQNIGTTIHWYHQRTNGSPRLLIKFASESISGIPSRFSGSGSGTDFTLSINSVESEDFADYYCQQSNSWPFTFGSGTKLEIK
notes: as for B3
B13: CD137 #B13 (antibody, human IgG1, V domains shown)
VH: QVQLQQPGAELVKPGASVKLSCKASGYTFTNFWINWVKQRPGQALEWIGNIYPGNDNTNYNGNFKTKATLTVDRSSSTAYMHLSSLTSKDSAVYYCARGQLGLDYWGQGTTLTVSS
VL: DILLTQSPAILSVSPGERVSFSCRASQNIGTTIHWYHQRTNGSPRLLIKFASESISGIPSRFSGSGSGTDFTLSINSVESEDFADYYCQQSNSWPFTFGSGTKLEIK
notes: as for B3
B14: CD137 #B2 (antibody, human IgG1, V domains shown)
VH: QVQLQQPGAELVKPGASVKLSCKASGYTFTNFWINWVKQRPGQGLEWIGNIYPGNTGTNYNERFKTKATLTVDISSSTAYMRLSSLTSEDSAVYYCARGQLGLDYWGQGTTLTVSS
VL: DILLTQSPAILSVSPGERVSFSCRASQIIGTTIQWYQQRTNGSPRLLIKYASESLSGIPSRFSGSGSGTDFTLSINNVESEDIADYYCQQSHSWPFTFGSGTKLEIK
notes: as for B3
B15: CD137 #A27 (antibody, human IgG1, V domains shown)
VH: QVQLQQSGAELTRPGASVKLSCKASGYTFTNYWIQWIKQRPGQGLEWIGTIYPENGDTRYTQKFKGKATLTADKSSSTAYMQLSSLASEDSAVYYCARGLLEGAHYWGQGTTLTVSS
VL: DILLTQSPAILSVSPGERVSFSCRASQSIGASIHWYQQRTNGSPRLLIKFSSESISGIPSRFSGSGSGTDFTLTINSVESEDIADYYCQQTNSWPTAFGGGTKLEMK
notes: as for B3

The target in one assay is T1, Murine Fibroblast Activation Protein (FAP) on B16 cells (mouse, UniProt P97321 1-761).
T1 construct: B16 cells transduced with murine FAP cDNA; also called B16-FAP
T1 sequence (P97321 other isoform, or with tags, fused parts or gaps): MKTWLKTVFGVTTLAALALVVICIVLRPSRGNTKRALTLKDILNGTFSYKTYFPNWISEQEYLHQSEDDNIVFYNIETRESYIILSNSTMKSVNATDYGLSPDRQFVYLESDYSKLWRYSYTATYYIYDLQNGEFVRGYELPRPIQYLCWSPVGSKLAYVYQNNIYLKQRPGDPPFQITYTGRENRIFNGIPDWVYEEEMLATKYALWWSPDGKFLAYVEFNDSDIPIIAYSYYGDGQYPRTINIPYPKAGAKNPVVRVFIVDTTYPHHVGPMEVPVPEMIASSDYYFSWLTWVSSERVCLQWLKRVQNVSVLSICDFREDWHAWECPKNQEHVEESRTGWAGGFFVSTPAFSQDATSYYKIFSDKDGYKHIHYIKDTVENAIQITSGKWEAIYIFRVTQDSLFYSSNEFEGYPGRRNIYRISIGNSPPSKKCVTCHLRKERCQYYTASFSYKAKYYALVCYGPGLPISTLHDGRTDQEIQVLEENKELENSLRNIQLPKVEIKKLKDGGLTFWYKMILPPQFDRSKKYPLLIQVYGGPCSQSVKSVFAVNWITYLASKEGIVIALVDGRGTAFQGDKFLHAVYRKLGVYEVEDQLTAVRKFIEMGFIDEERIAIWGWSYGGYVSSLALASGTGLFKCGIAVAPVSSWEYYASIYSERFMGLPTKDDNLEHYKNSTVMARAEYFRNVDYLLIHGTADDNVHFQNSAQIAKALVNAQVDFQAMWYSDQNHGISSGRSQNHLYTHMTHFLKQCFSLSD
Briefly: flow cytometry, scFv-Fc on B16-FAP cells. (A flow cytometer gives signals particle by particle.)
B1 yielded an MFI of 1840 MFI.
For B2, the MFI was determined as 1410 MFI.

The next assay has as its target T2, Human CD137 on Jurkat cells (human, UniProt Q07011 24-255).
T2 construct: whole, on cells; also called full-length human CD137-expressing Jurkat cell line; NF-kB-Luc2/4-1BB Jurkat
Briefly: flow cytometry, Jurkat cells.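 Further: binding of antibody-containing supernatants to NF-kB-Luc2/4-1BB Jurkat cells, detected by flow cytometry with a PE-labelled anti-human IgG-Fc secondary antibody.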
Description: Briefly, HTP supernatants containing recombinant IgG1 (KO) antibodies, were assayed by flow cytometry for binding to the NF-kB-Luc2/4-1BB Jurkat cell line. […] The cells were washed x3 with staining buffer. A Goat F(ab′)2 anti-human IgG-Fc PE secondary antibody was added to the cells and the plate was incubated for 30 min at 4° C. The cells were wash ×3 with staining buffer.
With B3, the binding result is listed as “binds”.
Regarding B4, the binding result is “binds”.
For B5, the binding result is listed as “binds”.
Same read-out and setting: the value for B6 was “binds”; that for B7 was “binds”; that for B8 was “binds”.
On the same count and under the same terms, the value for B9 was “binds”; that for B10 was “binds”; that for B11 was “binds”.
Turning to B12, the binding result was “binds”.
Same read-out and setting: the value for B13 was “binds”; that for B14 was “binds”.
As to B15, the binding result is on record as “binds”.

A further assay addresses T3, Human Fibroblast Activation Protein (FAP) on HT1080 cells (human, UniProt Q12884 1-760).
T3 construct: HT1080 cells transduced with human FAP cDNA; also called HT1080-FAP; FAP+ HT1080
The assay can be described thus: flow cytometry, scFv-Fc on HT1080-FAP cells.
B1 showed an MFI of 35600 MFI.
As for B2, the MFI came out at 72800 MFI.
